{
  "source": "paper PMC3013012",
  "key": {"[1]": {"target": "SETDB1 peptide RQVAVKme3STRGFALKme3STHGIAIKme3STN (human)"}, "[2]": {"target": "SETDB1 peptide RQVAVKme2STRGFALKme2STHGIAIKme2STN (human)"}},
  "note": "pKd: −log10 of the molar value.",
  "data": [
    {"substance": "Cbx7 chromodomain, Cbx7-(8–62) (from UniProt O95931 8-62) (domain or fragment)", "values": [
      {"measurement": "pKd", "setting": "[1]", "result": 5.92},
      {"measurement": "pKd", "setting": "[2]", "result": 4.82}
    ]},
    {"substance": "Cbx8 chromodomain, Cbx8-(8–61) (from UniProt Q9HC52 8-61) (domain or fragment)", "values": [
      {"measurement": "pKd", "setting": "[2]", "result": 3.74}
    ]}
  ]
}
